Results: IntAct's records for PubMed 25910212

B1: Chorion-specific transcription factor GCMb (Homo sapiens), O75603 (parent)
chain: MPAAAVQEAVGVCSYGMQLSWDINDPQMPQELALFDQFREWPDGYVRFIYSSDEKKAQRHLSGWAMRNTNNHNGHILKKSCLGVVVCTQACTLPDGSRLQLRPAICDKARLKQQKKACPNCHSALELIPCRGHSGYPVTNFWRLDGNAIFFQAKGVHDHPRPESKSETEARRSAIKRQMASFYQPQKKRIRESEAEENQDSSGHFSNIPPLENPEDFDIVTETSFPIPGQPCPSFPKSDVYKATCDLATFQGDKMPPFQKYSSPRIYLPRPPCSYELANPGYTNSSPYPTLYKDSTSIPNDTDWVHLNTLQCNVNSYSSYERSFDFTNKQHGWKPALGKPSLVERTNHGQFQAMATRPYYNPELPCRYLTTPPPGAPALQTVITTTTKVSYQAYQPPAMKYSDSVREVKSLSSCNYAPEDTGMSVYPEPWGPPVTVTRAASPSGPPPMKIAGDCRAIRPTVAIPHEPVSSRTDEAETWDVCLSGLGSAVSYSDRVGPFFTYNNEDF
B2: EF-hand domain-containing protein 1 (Homo sapiens), Q5JVL4 (parent)
chain: MVSNPVHGLPFLPGTSFKDSTKTAFHRSQTLSYRNGYAIVRRPTVGIGGDRLQFNQLSQAELDELASKAPVLTYGQPKQAPPADFIPAHVAFDKKVLKFDAYFQEDVPMSTEEQYRIRQVNIYYYLEDDSMSVIEPVVENSGILQGKLIKRQRLAKNDRGDHYHWKDLNRGINITIYGKTFRVVDCDQFTQVFLESQGIELNPPEKMALDPYTELRKQPLRKYVTPSDFDQLKQFLTFDKQVLRFYAIWDDTDSMYGECRTYIIHYYLMDDTVEIREVHERNDGRDPFPLLMNRQRVPKVLVENAKNFPQCVLEISDQEVLEWYTAKDFIVGKSLTILGRTFFIYDCDPFTRRYYKEKFGITDLPRIDVSKREPPPVKQELPPYNGFGLVEDSAQNCFALIPKAPKKDVIKMLVNDNKVLRYLAVLESPIPEDKDRRFVFSYFLATDMISIFEPPVRNSGIIGGKYLGRTKVVKPYSTVDNPVYYGPSDFFIGAVIEVFGHRFIILDTDEYVLKYMESNAAQYSPEALASIQNHVRKREAPAPEAESKQTEKDPGVQELEALIDTIQKQLKDHSCKDNIREAFQIYDKEASGYVDRDMFFKICESLNVPVDDSLVKELIRMCSHGEGKINYYNFVRAFSN
partner: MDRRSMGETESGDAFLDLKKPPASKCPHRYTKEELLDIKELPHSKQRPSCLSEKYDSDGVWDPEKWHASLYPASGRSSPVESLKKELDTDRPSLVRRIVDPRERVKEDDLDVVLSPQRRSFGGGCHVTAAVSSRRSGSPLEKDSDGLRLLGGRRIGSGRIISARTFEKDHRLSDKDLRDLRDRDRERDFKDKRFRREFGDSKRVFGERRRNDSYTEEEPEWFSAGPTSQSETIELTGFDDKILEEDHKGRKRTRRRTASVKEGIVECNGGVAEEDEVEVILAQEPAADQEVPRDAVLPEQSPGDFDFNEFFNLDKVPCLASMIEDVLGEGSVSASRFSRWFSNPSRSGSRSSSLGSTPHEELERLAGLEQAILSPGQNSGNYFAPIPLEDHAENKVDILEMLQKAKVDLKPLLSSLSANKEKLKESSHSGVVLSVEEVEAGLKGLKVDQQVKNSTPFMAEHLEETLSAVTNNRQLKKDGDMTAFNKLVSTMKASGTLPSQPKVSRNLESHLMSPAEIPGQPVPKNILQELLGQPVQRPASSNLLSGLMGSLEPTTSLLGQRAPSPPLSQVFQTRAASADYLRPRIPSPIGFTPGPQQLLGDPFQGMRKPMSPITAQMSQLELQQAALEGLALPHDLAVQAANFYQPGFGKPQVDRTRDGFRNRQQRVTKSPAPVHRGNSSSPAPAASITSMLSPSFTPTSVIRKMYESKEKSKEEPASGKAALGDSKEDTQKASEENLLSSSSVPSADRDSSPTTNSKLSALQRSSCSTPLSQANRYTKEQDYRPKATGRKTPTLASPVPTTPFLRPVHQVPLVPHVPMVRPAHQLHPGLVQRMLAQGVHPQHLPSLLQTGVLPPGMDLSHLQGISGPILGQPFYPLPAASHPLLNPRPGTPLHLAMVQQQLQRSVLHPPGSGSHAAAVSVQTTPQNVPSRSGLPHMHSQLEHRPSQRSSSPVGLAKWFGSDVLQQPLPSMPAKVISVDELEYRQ
B3: EF-hand domain-containing protein 1 (Homo sapiens), Q5JVL4 (parent)
chain: B2 chain
partner: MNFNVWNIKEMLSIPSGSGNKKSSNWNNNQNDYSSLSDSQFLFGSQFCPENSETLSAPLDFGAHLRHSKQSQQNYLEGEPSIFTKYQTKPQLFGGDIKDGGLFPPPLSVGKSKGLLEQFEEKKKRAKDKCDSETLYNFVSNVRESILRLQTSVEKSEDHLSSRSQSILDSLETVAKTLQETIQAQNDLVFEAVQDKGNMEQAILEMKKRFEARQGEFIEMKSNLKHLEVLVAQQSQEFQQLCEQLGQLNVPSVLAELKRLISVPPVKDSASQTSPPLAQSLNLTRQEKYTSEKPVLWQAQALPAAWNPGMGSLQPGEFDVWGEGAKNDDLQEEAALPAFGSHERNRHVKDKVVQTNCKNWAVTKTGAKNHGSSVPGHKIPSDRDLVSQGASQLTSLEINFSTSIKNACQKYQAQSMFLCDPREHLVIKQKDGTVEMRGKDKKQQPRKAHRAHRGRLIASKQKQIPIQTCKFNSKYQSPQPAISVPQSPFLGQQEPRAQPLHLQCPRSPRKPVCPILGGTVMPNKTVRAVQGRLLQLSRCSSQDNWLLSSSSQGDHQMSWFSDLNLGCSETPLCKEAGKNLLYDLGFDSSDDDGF
B4: Forkhead box protein P3 (Homo sapiens), Q9BZS1 (parent)
chain: MPNPRPGKPSAPSLALGPSPGASPSWRAAPKASDLLGARGPGGTFQGRDLRGGAHASSSSLNPMPPSQLQLPTLPLVMVAPSGARLGPLPHLQALLQDRPHFMHQLSTVDAHARTPVLQVHPLESPAMISLTPPTTATGVFSLKARPGLPPGINVASLEWVSREPALLCTFPNPSAPRKDSTLSAVPQSSYPLLANGVCKWPGCEKVFEEPEDFLKHCQADHLLDEKGRAQCLLQREMVQSLEQQLVLEKEKLSAMQAHLAGKMALTKASSVASSDKGSCCIVAAGSQGPVVPAWSGPREAPDSLFAVRRHLWGSHGNSTFPEFLHNMDYFKFHNMRPPFTYATLIRWAILEAPEKQRTLNEIYHWFTRMFAFFRNHPATWKNAIRHNLSLHKCFVRVESEKGAVWTVDELEFRKKRSQRPSRCSNPTPGP
B5: Mitochondrial import inner membrane translocase subunit Tim8 A (Homo sapiens), O60220 (parent)
chain: MDSSSSSSAAGLGAVDPQLQHFIEVETQKQRFQQLVHQMTELCWEKCMDKPGPKLDSRAEACFVNCVERFIDTSQFILNRLEQTQKSKPVFSESLSD

Variants of: B1
Conditions: with crx_human CRX

Variant	effect of a mutation on the interaction
R47L	with no effect
G63S	with no effect

Variants of: B1
Conditions: with RBPMS

Variant	effect of a mutation on the interaction
R47L	with no effect
G63S	disrupting interaction strength

Variants of: B2
Conditions: with 4et_human EIF4ENIF1, Q9NRA8

Variant	effect of a mutation on the interaction
A394S	disrupting interaction strength
R221H	disrupting interaction strength
T508R	disrupting interaction strength
R159W	with no effect
M448T	with no effect
P77T	disrupting interaction strength

Variants of: B3
Conditions: with iho1_human IHO1, Q8IYA8

Variant	effect of a mutation on the interaction
M448T	with no effect
P77T	disrupting interaction strength
A394S	disrupting interaction strength
R159W	with no effect
T508R	disrupting interaction strength
R221H	disrupting interaction strength

Variants of: B4
Conditions: with RBPMS

Variant	effect of a mutation on the interaction
G52V	with no effect
P187L	with no effect
Q70H	disrupting interaction strength

Variants of: B4
Conditions: with pr20e_human PRR20E

Variant	effect of a mutation on the interaction
G52V	with no effect
P187L	with no effect
Q70H	disrupting interaction strength

Variants of: B5
Conditions: with stam2_human STAM2, O75886

Variant	effect of a mutation on the interaction
C66W	disrupting interaction strength
